Assay results published in IntAct's records for PubMed 20639876.

B1: Myeloid differentiation primary response protein MyD88 (Mus musculus), P22366 (parent)
chain: MSAGDPRVGSGSLDSFMFSIPLVALNVGVRRRLSLFLNPRTPVAADWTLLAEEMGFEYLEIRELETRPDPTRSLLDAWQGRSGASVGRLLELLALLDREDILKELKSRIEEDCQKYLGKQQNQESEKPLQVARVESSVPQTKELGGITTLDDPLGQTPELFDAFICYCPNDIEFVQEMIRQLEQTDYRLKLCVSDRDVLPGTCVWSIASELIEKRCRRMVVVVSDDYLQSKECDFQTKFALSLSPGVQQKRLIPIKYKAMKKDFPSILRFITICDYTNPCTKSWFWTRLAKALSLP
B2: TIR domain-containing adapter molecule 1 (Mus musculus), Q80UF7 (parent)
chain: MDNPGPSLRGAFGILGALERDRLTHLKHKLGSLCSGSQESKLLHAMVLLALGQDTEARVSLESLKMNTVAQLVAHQWADMETTEGPEEPPDLSWTVARLYHLLAEENLCPASTRDMAYQVALRDFASQGDHQLGQLQNEAWDRCSSDIKGDPSGFQPLHSHQGSLQPPSASPAVTRSQPRPIDTPDWSWGHTLHSTNSTASLASHLEISQSPTLAFLSSHHGTHGPSKLCNTPLDTQEPQLVPEGCQEPEEISWPPSVETSVSLGLPHEISVPEVSPEEASPILPDALAAPDTSVHCPIECTELSTNSRSPLTSTTESVGKQWPITSQRSPQVPVGDDSLQNTTSSSPPAQPPSLQASPKLPPSPLSSASSPSSYPAPPTSTSPVLDHSETSDQKFYNFVVIHARADEQVALRIREKLETLGVPDGATFCEEFQVPGRGELHCLQDAIDHSGFTILLLTASFDCSLSLHQINHALMNSLTQSGRQDCVIPLLPLECSQAQLSPDTTRLLHSIVWLDEHSPIFARKVANTFKTQKLQAQRVRWKKAQEARTLKEQSIQLEAERQNVAAISAAYTAYVHSYRAWQAEMNKLGVAFGKNLSLGTPTPSWPGCPQPIPSHPQGGTPVFPYSPQPPSFPQPPCFPQPPSFPQPPSFPLPPVSSPQSQSFPSASSPAPQTPGPQPLIIHHAQMVQLGVNNHMWGHTGAQSSDDKTECSENPCMGPLTDQGEPLLETPE

Variants of: B1
Details: with cblb_mouse Cblb
Target sequence in this assay (Q3TTA7 whole entry): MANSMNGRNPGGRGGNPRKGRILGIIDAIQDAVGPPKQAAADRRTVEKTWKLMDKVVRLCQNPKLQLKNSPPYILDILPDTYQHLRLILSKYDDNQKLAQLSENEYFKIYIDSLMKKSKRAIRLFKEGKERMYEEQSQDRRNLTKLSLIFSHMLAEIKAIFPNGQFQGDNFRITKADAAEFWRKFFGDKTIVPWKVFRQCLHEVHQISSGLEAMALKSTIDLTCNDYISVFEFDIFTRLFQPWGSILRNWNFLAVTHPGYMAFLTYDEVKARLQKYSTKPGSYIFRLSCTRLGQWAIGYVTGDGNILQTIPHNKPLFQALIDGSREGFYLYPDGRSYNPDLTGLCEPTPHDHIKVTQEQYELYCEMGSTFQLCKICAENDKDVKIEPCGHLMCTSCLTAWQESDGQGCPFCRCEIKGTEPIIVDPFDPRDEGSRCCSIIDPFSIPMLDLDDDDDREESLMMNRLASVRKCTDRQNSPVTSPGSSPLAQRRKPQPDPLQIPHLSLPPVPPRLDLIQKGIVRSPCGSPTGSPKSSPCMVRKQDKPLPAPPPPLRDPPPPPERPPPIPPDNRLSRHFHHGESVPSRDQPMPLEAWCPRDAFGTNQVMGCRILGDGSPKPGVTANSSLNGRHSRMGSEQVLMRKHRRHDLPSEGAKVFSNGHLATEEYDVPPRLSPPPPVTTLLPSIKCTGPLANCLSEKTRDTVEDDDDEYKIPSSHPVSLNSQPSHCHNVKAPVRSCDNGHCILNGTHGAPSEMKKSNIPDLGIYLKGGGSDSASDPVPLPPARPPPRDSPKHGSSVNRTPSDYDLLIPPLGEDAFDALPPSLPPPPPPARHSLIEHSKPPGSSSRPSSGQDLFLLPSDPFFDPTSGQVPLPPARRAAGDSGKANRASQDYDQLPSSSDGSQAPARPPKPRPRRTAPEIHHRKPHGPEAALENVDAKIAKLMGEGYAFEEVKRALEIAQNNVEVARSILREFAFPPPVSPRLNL

Variant	effect of a mutation on the interaction
Y227F	decreasing interaction

Variants of: B2
Details: with cblb_mouse Cblb
Target sequence in this assay (Q3TTA7 whole entry): as above

Variant	effect of a mutation on the interaction
Y375F	decreasing interaction
